The text below walks through data of paper PMC10718521, “Complexity of αvβ6-integrin targeting RGD peptide trimers: emergence of non-specific binding by synergistic interaction” (RSC Medicinal Chemistry, 2023).

The target of series [1] is T1, αvβ6-integrin (Homo sapiens, UniProt P06756+P18564). Kind of series: ELISA on immobilized integrins, αvβ6. The series is classed as binding. The conditions noted are these: for IC50: ELISA, read-out: IC50 (95% confidence interval) αvβ6; for αvβ6-selectivity over α5β1 / αvβ6-selectivity over αvβ3 / αvβ6-selectivity over αvβ8: IC50-based. As to the method:
(§1) The integrin affinities of the monomers were determined using an established ELISA protocol,[36] and expressed as 50% inhibitory concentrations (IC50, Table 1).
(§2) Unless otherwise noted, the materials and the instrumentation used (analytical and preparative HPLC, ESI-MS, gamma counter, centrifuge), and the experimental procedures (^68Ga radiolabeling and radio-TLC for quality control, determination of log D7.4, cultivation of H2009 human lung adenocarcinoma cells, generation of tumor xenografts in CB17 SCID mice, small-animal PET, and biodistribution) were described before.[19] All animal experiments have been carried out according to applicable law and institutional guidelines of Technical University of Munich, and were approved by the responsible local authority (Regierung von Oberbayern). The H2009 cells were regularly authenticated and tested for mycoplasma contamination. The affinities of the pentynoic amide functionalized peptides were determined employing a well-established ELISA protocol on immobilized integrins.[36] TRAP-triazide,[38]FF (previously termed AvB6),[32] and YY (also referred to as Tyr2-alkyne)[33] were synthesized as described previously. RP-HPLC for assessment of compound polarity was done on a 150 × 4.6 mm ReproSil-Pur 120 C18-AQ 5 μm column, with a flow of 0.75 mL min^−1 and a gradient of 10–50% MeCN in water, both containing 0.1% trifluoroacetic acid, within 15 min. The required ^natGa-complexes of the peptide trimers were synthesized by reaction with equimolar amounts of aq. GaCl3 as described.[19]

For series [2], the target named is T2, αvβ8-integrin (Homo sapiens, UniProt P06756+P26012). Nature of the series: ELISA on immobilized integrins, αvβ8. Type of series: binding. The conditions noted are these: read-out: IC50 (95% confidence interval) αvβ8. As to the method:
as §1
as §2, with “RP-HPLC for assessment of compound polarity was done on a 150 × 4.6 mm ReproSil-Pur 120 C18-AQ 5 μm column, with a flow of 0.75 mL min^−1 and a gradient of 10–50% MeCN in water, both containing 0.1% trifluoroacetic acid, within 15 min. The required ^natGa-complexes of the peptide trimers were synthesized by reaction with equimolar amounts of aq. GaCl3 as described.[19]” left out

The target of series [3] is T3, αvβ3-integrin (Homo sapiens, UniProt P05106+P06756). Kind of series: ELISA on immobilized integrins, αvβ3. The series is classed as binding. The settings on record: read-out: IC50 (95% confidence interval) αvβ3. As to the method:
as §1
as §2, with “RP-HPLC for assessment of compound polarity was done on a 150 × 4.6 mm ReproSil-Pur 120 C18-AQ 5 μm column, with a flow of 0.75 mL min^−1 and a gradient of 10–50% MeCN in water, both containing 0.1% trifluoroacetic acid, within 15 min. The required ^natGa-complexes of the peptide trimers were synthesized by reaction with equimolar amounts of aq. GaCl3 as described.[19]” left out

Series [4] has as its target T4, α5β1-integrin (Homo sapiens, UniProt P05556+P08648). Kind of series: ELISA on immobilized integrins, α5β1. The series is classed as binding. The conditions noted are these: read-out: IC50 (95% confidence interval) α5β1. As to the method: as §1
as §2, with “RP-HPLC for assessment of compound polarity was done on a 150 × 4.6 mm ReproSil-Pur 120 C18-AQ 5 μm column, with a flow of 0.75 mL min^−1 and a gradient of 10–50% MeCN in water, both containing 0.1% trifluoroacetic acid, within 15 min. The required ^natGa-complexes of the peptide trimers were synthesized by reaction with equimolar amounts of aq. GaCl3 as described.[19]” left out

Series [5] has as its target T1, αvβ6-integrin. Further details: method as in PMID 34559266. The conditions noted are these: ELISA; read-out: IC50 (95% confidence interval) αvβ6; cited from earlier work.
Series [6] concerns the target T2, αvβ8-integrin. Further details: method as in PMID 34559266. The conditions noted are these: ELISA; read-out: IC50 (95% confidence interval) αvβ8; cited from earlier work.
Series [7] addresses T3, αvβ3-integrin. Further details: method as in PMID 34559266. The settings on record: ELISA; read-out: IC50 (95% confidence interval) αvβ3; cited from earlier work.
Series [8] concerns the target T4, α5β1-integrin. Further details: method as in PMID 34559266. The conditions noted are these: ELISA; read-out: IC50 (95% confidence interval) α5β1; cited from earlier work.
The next series has as its system H2009 bearing SCID mice. The conditions noted are these: mouse, in vivo. The method, then: Fig. 3 Positron emission tomography (PET) of severe combined immunodeficient (SCID) mice bearing subcutaneous H2009 (human lung adenocarcinoma) xenografts on the right shoulder. Dynamic scans for determination of biokinetics (a and b) were recorded in list mode and reconstructed in multiple frames with increasing time spans. Static images (c and d) were recorded over 20 min, 75 min after tracer administration, and reconstructed as single frames using the OSEM3D algorithm. […]
Unless otherwise noted, the materials and the instrumentation used (analytical and preparative HPLC, ESI-MS, gamma counter, centrifuge), and the experimental procedures (^68Ga radiolabeling and radio-TLC for quality control, determination of log D7.4, cultivation of H2009 human lung adenocarcinoma cells, generation of tumor xenografts in CB17 SCID mice, small-animal PET, and biodistribution) were described before.[19] […] The affinities of the pentynoic amide functionalized peptides were determined employing a well-established ELISA protocol on immobilized integrins.[36] […]

The format of series [9] is physicochemical. The conditions noted are these: pH 7.4.
Another series can be described thus: in vivo. The conditions noted are these: CB17 SCID, mouse, total radioactivity. Further details: species or system mice.

Read-outs that look alike come from different tables or passages of the source. Where a SMILES comes first, the peptide text is derived from it. [ ]: non-standard residue; d: D form. The star is where a group is joined. NMeK = CN[C@@H](CCCCN)C(=O)O; Pent4ynoyl = C#CCCC(=O)*

T4 sequence (P08648 42-995 limits assumed): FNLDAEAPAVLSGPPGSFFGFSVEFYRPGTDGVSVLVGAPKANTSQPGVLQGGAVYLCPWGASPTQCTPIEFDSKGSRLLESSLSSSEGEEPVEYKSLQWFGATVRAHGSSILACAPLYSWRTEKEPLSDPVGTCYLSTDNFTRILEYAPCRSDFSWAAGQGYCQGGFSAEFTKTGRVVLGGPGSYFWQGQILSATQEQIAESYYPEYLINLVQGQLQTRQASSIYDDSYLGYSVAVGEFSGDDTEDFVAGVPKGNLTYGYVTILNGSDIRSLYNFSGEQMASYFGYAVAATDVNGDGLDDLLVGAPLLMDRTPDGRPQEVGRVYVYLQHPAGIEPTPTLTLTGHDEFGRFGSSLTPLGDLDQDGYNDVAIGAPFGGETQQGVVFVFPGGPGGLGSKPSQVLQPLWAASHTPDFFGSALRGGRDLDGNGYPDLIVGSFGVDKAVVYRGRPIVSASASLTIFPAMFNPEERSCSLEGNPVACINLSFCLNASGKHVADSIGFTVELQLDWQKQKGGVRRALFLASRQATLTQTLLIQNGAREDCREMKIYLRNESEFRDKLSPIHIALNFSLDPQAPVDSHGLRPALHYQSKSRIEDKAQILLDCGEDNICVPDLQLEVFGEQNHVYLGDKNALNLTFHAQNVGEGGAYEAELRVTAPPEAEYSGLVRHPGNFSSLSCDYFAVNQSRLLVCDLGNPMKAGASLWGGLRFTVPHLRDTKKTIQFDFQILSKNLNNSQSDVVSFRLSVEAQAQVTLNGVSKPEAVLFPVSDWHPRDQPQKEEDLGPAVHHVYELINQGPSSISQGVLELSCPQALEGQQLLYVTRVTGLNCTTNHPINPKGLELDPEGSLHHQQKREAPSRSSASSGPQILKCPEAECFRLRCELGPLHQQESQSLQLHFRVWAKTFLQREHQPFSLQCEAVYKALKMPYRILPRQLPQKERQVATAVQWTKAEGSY
T4 sequence (P05556 21-728 limits assumed): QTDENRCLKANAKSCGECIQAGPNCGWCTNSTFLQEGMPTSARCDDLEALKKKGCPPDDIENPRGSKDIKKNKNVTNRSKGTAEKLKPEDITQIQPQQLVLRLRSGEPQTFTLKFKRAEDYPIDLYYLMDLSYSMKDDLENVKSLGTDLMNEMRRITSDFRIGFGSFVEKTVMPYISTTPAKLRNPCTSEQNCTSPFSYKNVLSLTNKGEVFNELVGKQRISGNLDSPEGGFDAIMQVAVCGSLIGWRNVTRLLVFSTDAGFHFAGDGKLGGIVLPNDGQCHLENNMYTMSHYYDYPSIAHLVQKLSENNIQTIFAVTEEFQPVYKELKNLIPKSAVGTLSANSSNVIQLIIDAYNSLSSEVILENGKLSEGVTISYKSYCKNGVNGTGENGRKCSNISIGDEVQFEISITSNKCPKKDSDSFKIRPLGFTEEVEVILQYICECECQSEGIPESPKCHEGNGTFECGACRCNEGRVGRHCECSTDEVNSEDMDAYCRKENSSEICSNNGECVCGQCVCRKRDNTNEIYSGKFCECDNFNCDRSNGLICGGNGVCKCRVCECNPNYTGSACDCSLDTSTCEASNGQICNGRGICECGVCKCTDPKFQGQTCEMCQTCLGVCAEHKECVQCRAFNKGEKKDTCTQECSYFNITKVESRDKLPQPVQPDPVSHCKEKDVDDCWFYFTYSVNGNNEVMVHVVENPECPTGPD
T2 sequence (P06756 31-992 limits assumed): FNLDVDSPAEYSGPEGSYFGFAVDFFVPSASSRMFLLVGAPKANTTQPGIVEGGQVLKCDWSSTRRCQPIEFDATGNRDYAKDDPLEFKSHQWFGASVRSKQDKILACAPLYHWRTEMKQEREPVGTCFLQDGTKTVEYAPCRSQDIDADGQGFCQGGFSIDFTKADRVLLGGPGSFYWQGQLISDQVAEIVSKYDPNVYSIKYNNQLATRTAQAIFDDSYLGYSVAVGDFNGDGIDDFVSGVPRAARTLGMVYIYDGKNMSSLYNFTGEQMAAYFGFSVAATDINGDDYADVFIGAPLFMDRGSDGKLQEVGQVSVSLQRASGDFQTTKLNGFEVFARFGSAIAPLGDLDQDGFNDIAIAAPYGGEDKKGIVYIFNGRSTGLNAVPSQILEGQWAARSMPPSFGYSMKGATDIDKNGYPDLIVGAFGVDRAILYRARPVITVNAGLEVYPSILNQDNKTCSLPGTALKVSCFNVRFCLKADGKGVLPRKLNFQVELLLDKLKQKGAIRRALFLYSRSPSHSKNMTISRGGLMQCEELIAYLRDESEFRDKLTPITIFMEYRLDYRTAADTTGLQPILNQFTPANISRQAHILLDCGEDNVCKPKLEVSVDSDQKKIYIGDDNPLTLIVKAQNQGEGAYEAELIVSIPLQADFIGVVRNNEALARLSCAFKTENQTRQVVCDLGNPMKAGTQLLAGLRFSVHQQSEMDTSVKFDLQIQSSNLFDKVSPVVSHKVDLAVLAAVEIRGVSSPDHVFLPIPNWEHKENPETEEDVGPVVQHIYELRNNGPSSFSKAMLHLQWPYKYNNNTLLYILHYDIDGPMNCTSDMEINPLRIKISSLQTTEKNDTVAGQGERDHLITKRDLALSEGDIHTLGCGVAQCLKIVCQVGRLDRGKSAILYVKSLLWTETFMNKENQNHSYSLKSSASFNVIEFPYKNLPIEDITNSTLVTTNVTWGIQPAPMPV
T2 sequence (P26012 43-684 limits assumed): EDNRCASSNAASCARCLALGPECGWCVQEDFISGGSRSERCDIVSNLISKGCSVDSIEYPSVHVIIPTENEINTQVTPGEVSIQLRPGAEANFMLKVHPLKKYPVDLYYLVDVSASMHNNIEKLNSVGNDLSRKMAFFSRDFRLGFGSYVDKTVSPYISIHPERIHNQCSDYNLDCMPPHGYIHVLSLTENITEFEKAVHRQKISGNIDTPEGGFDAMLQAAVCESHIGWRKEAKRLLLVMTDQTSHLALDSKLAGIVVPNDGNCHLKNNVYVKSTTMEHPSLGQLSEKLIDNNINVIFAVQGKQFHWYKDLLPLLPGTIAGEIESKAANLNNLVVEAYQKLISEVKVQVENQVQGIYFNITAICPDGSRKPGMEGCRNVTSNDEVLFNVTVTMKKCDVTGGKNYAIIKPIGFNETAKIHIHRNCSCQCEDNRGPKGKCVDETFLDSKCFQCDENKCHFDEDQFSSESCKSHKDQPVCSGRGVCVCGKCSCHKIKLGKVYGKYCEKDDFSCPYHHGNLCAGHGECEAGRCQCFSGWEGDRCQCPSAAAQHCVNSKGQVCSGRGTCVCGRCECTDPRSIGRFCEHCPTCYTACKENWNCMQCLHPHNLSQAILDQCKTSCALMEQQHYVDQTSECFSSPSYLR
T1 sequence (P06756 31-992 limits assumed): as the sequence (P06756 31-992 limits assumed) above
T1 sequence (P18564 22-707 limits assumed): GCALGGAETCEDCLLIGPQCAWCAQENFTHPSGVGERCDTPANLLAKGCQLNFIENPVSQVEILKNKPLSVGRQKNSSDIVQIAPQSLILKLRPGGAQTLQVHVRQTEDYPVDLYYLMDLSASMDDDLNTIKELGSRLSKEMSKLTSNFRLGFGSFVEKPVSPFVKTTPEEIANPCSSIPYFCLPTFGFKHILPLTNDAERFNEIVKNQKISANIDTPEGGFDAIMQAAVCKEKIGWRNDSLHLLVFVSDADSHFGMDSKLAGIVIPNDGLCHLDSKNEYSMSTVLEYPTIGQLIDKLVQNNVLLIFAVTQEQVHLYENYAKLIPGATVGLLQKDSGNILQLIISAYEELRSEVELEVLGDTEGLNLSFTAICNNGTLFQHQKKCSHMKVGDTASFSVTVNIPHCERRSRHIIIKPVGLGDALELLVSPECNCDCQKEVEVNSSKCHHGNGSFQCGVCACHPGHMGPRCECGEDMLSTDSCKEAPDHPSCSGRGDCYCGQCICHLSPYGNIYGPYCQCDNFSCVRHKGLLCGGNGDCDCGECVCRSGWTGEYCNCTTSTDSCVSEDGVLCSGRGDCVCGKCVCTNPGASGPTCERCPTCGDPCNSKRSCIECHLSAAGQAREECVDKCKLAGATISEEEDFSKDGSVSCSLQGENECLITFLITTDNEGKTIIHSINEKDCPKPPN

In the case of `C#CCCC(=O)NCCCC[C@H]1C(=O)N[C@@H](Cc2ccc(O)cc2)C(=O)N[C@@H](CCCNC(=N)N)C(=O)NCC(=O)N[C@@H](CC(=O)O)C(=O)N[C@@H](CC(C)C)C(=O)N[C@@H](C)C(=O)N[C@@H](Cc2ccccc2)C(=O)N2CCC[C@@H]2C(=O)N1C` [YF] (cyclo(YRGDLAF[dP][NMeK](Pent4ynoyl))), the IC50 at αvβ6-integrin [1] was found to be 0.0033 µM; on αvβ8-integrin [2], 0.023 µM; at αvβ3-integrin [3] it was 0.63 µM; on α5β1-integrin [4], 0.114 µM. Moreover, at αvβ6-integrin [1], the “αvβ6-selectivity over α5β1” value is recorded as 35. Also, on αvβ6-integrin [1], the “αvβ6-selectivity over αvβ3” value came to 190. Besides, the “αvβ6-selectivity over αvβ8” value at αvβ6-integrin [1] was found to be 6.9.

Regarding “YY: cyclo[YRGDLAYp(NMe)K] bearing 4-pentynoic amide on the Lys side chain; alkyne-functionalized peptide monomer (cyclo(YRGDLAY[dP][NMeK](Pent4ynoyl)); SMILES C#CCCC(=O)NCCCC[C@H]1C(=O)N[C@@H](Cc2ccc(O)cc2)C(=O)N[C@@H](CCCNC(=N)N)C(=O)NCC(=O)N[C@@H](CC(=O)O)C(=O)N[C@@H](CC(C)C)C(=O)N[C@@H](C)C(=O)N[C@@H](Cc2ccc(O)cc2)C(=O)N2CCC[C@@H]2C(=O)N1C)”, the IC50 with αvβ6-integrin [5] is 0.00084 µM; in the series with αvβ8-integrin [6], 0.026 µM; with αvβ3-integrin [7] it was 0.219 µM; with α5β1-integrin [8] it was 0.15 µM.

With `C#CCCC(=O)NCCCC[C@H]1C(=O)N[C@@H](Cc2ccccc2)C(=O)N[C@@H](CCCNC(=N)N)C(=O)NCC(=O)N[C@@H](CC(=O)O)C(=O)N[C@@H](CC(C)C)C(=O)N[C@@H](C)C(=O)N[C@@H](Cc2ccc(O)cc2)C(=O)N2CCC[C@@H]2C(=O)N1C` [FY] (cyclo(FRGDLAY[dP][NMeK](Pent4ynoyl))), at αvβ6-integrin [1], the IC50 amounted to 0.0028 µM, the “αvβ6-selectivity over α5β1” value worked out at 63, the “αvβ6-selectivity over αvβ3” value was found to be 261 and the “αvβ6-selectivity over αvβ8” value is given as 13.2. The IC50 at αvβ8-integrin [2] turned out to be 0.037 µM. At αvβ3-integrin [3], the IC50 was determined as 0.732 µM. In addition, on α5β1-integrin [4], the 50% inhibitory concentration (IC50) is 0.177 µM.

As for “FF: cyclo[FRGDLAFp(NMe)K] bearing 4-pentynoic amide on the Lys side chain; alkyne-functionalized peptide monomer”, the IC50 with αvβ6-integrin [5] is 0.00017 µM; in the series with αvβ8-integrin [6], 0.032 µM; with αvβ3-integrin [7], 0.424 µM; in the series with α5β1-integrin [8], 0.226 µM.

On to `CC(C)C[C@@H]1NC(=O)[C@H](CC(=O)O)NC(=O)CNC(=O)[C@H](CCCNC(=N)N)NC(=O)[C@H](Cc2ccc(O)cc2)NC(=O)[C@H](CCCCNC(=O)CCc2cn(CCCNC(=O)CCP(=O)(O)CN3CCN(CP(=O)(O)CCC(=O)NCCCn4cc(CCC(=O)NCCCC[C@H]5C(=O)N[C@@H](Cc6ccc(O)cc6)C(=O)N[C@@H](CCCNC(=N)N)C(=O)NCC(=O)N[C@@H](CC(=O)O)C(=O)N[C@@H](CC(C)C)C(=O)N[C@@H](C)C(=O)N[C@@H](Cc6ccc(O)cc6)C(=O)N6CCC[C@@H]6C(=O)N5C)nn4)CCN(CP(=O)(O)CCC(=O)NCCCn4cc(CCC(=O)NCCCC[C@H]5C(=O)N[C@@H](Cc6ccc(O)cc6)C(=O)N[C@@H](CCCNC(=N)N)C(=O)NCC(=O)N[C@@H](CC(=O)O)C(=O)N[C@@H](CC(C)C)C(=O)N[C@@H](C)C(=O)N[C@@H](Cc6ccc(O)cc6)C(=O)N6CCC[C@@H]6C(=O)N5C)nn4)CC3)nn2)N(C)C(=O)[C@H]2CCCN2C(=O)[C@H](Cc2ccc(O)cc2)NC(=O)[C@H](C)NC1=O` [Y6], for which the “Kinetic data Blood” value in the series with H2009 bearing SCID mice was 13.14 ± 1.99.

`CC(C)C[C@@H]1NC(=O)[C@H](CC(=O)O)NC(=O)CNC(=O)[C@H](CCCNC(=N)N)NC(=O)[C@H](Cc2ccccc2)NC(=O)[C@H](CCCCNC(=O)CCc2cn(CCCNC(=O)CCP(=O)(O)CN3CCN(CP(=O)(O)CCC(=O)NCCCn4cc(CCC(=O)NCCCC[C@H]5C(=O)N[C@@H](Cc6ccc(O)cc6)C(=O)N[C@@H](CCCNC(=N)N)C(=O)NCC(=O)N[C@@H](CC(=O)O)C(=O)N[C@@H](CC(C)C)C(=O)N[C@@H](C)C(=O)N[C@@H](Cc6ccc(O)cc6)C(=O)N6CCC[C@@H]6C(=O)N5C)nn4)CCN(CP(=O)(O)CCC(=O)NCCCn4cc(CCC(=O)NCCCC[C@H]5C(=O)N[C@@H](Cc6ccc(O)cc6)C(=O)N[C@@H](CCCNC(=N)N)C(=O)NCC(=O)N[C@@H](CC(=O)O)C(=O)N[C@@H](CC(C)C)C(=O)N[C@@H](C)C(=O)N[C@@H](Cc6ccc(O)cc6)C(=O)N6CCC[C@@H]6C(=O)N5C)nn4)CC3)nn2)N(C)C(=O)[C@H]2CCCN2C(=O)[C@H](Cc2ccccc2)NC(=O)[C@H](C)NC1=O` (68Ga complex, metal not drawn) [Y4]: the logD in series [9] is -1.9 ± 0.1. In addition, the tissue uptake at 1.5 h stood at 0.71 ± 0.37 %ID/g in “in vivo” (Adrenals uptake); 0.86 ± 0.26 %ID/g in “in vivo” (Blood uptake); 0.47 ± 0.12 %ID/g in the series “in vivo” (Heart (myocard) uptake); 91.3 ± 8.28 %ID/g in “in vivo” (Kidneys uptake); 2.29 ± 0.59 %ID/g in “in vivo” (Large intestine (empty) uptake); 0.93 ± 0.14 %ID/g in “in vivo” (Liver uptake). Further, the tissue uptake at 1.5 h in the series “in vivo” (Lung uptake) worked out at 3.22 ± 0.63 %ID/g; in “in vivo” (Muscle uptake), 1.41 ± 0.06 %ID/g; in “in vivo” (Pancreas uptake), 0.28 ± 0.08 %ID/g; in the series “in vivo” (Small intestine (empty) uptake) it was 1.35 ± 0.53 %ID/g; in the series “in vivo” (Spleen uptake), 1.57 ± 0.57 %ID/g; in “in vivo” (Stomach (empty) uptake), 4.92 ± 1.06 %ID/g. Besides, the tissue uptake at 1.5 h in “in vivo” (Tumor H2009 uptake) was 4.47 ± 0.96 %ID/g. Further, the tissue to tissue ratio at 1.5 h in “in vivo” (tumor/organ ratio Adrenals) worked out at 7.1 ± 1.9; in “in vivo” (tumor/organ ratio Blood), 5.5 ± 1.4; in “in vivo” (tumor/organ ratio Heart (myocard)), 9.6 ± 1.3; in “in vivo” (tumor/organ ratio Kidneys) it was 0.1; in “in vivo” (tumor/organ ratio Large intestine (empty)), 2.1 ± 0.6; in the series “in vivo” (tumor/organ ratio Liver), 5 ± 0.5. The tissue to tissue ratio at 1.5 h in “in vivo” (tumor/organ ratio Lung) is 1.4 ± 0.2; in “in vivo” (tumor/organ ratio Muscle), 12.2 ± 2.8; in the series “in vivo” (tumor/organ ratio Pancreas) it was 16.5 ± 1.6; in “in vivo” (tumor/organ ratio Small intestine (empty)), 3.7 ± 1; in “in vivo” (tumor/organ ratio Spleen), 3 ± 0.7; in the series “in vivo” (tumor/organ ratio Stomach (empty)), 1 ± 0.3.
